From patent US11851498B2, “Anti-CD276 antibodies (B7H3)” (THE UNITED STATES OF AMERICA, as represented by THE …, priority 2014, dated 2023)
Read-outs that look alike come from different tables or passages of the source.

T1: mouse CD276 expressed on the cell surface (CHO-msCD276) (Mus musculus, UniProt Q8VE98)
T1 construct: expressed in transfected cells; host or cells: CHO cells
T1 sequence (Q8VE98 29-316): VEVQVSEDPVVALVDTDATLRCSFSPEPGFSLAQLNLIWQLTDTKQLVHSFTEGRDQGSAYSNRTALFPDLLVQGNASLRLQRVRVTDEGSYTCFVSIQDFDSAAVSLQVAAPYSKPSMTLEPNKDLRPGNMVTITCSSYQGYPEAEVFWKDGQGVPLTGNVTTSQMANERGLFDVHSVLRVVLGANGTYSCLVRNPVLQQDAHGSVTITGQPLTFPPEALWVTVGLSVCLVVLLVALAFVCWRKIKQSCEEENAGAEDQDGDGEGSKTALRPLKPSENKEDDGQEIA

T2: human CD276 expressed on the cell surface (CHO-huCD276) (Homo sapiens, UniProt Q5ZPR3)
T2 construct: expressed in transfected cells; host or cells: CHO cells
T2 sequence (Q5ZPR3 29-534): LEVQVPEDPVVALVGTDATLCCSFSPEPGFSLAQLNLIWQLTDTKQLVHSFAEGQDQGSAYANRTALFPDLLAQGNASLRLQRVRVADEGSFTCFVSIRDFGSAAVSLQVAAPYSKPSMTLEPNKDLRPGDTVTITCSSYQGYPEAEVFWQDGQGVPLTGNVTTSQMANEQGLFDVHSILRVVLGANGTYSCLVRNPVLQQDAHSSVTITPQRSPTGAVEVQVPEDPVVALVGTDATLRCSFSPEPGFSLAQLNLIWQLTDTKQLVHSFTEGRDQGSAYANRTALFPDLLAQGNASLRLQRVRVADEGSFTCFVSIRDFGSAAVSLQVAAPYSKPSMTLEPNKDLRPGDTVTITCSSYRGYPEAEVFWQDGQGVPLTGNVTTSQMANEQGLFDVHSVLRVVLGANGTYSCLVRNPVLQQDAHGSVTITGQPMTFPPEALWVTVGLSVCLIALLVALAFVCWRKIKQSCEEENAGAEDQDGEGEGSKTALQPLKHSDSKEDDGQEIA

T3: human CD276 Ecto-domain (Homo sapiens, UniProt Q5ZPR3)
T3 construct: The human CD276 soluble extracellular domain was covalently immobilized onto a sensor chip (CM5)
T3 sequence (Q5ZPR3 29-466 limits assumed): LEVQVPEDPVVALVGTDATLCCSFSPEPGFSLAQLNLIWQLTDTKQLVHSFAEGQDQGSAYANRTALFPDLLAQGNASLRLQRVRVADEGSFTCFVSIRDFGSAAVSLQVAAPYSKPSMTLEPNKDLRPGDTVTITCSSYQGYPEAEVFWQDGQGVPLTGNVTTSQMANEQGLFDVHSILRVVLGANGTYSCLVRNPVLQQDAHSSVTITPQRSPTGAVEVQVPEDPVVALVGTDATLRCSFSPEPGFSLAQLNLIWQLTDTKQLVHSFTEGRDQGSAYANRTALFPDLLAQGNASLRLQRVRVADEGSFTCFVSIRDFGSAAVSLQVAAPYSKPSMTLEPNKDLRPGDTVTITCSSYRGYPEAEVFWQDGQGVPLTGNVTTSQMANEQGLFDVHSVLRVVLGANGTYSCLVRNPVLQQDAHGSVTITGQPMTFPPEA

B1: m8524: anti-CD276 antibody clone, heavy chain comprising SEQ ID NO: 26 and light chain comprising SEQ ID NO: 27 (antibody, V domains shown)
VH: QVQLQQSGAEVKKPGSSVKVSCKASGGTFSSYAISWVRQAPGQGLEWMGGIIPILGIANYAQKFQGRVTITADESTSTAYMELSSLRSEDTAVYYCARGGSGSYHMDVWGKGTTVTVSS
VL: EIVLTQSPATLSLSPGERATLSCRASQSVSSYLAWYQQKPGQAPRLLIYDASNRATGIPARFSGSGSGTDFTLTISSLEPEDFAVYYCQQRSNWPPRITFGQGTRLEIK
B2: m8524-ADC: m8524 antibody conjugated to MMAE via a linking moiety; n is 2, 4, 6, or 8 (conjugate)
VH: B1 VH
VL: B1 VL

What was measured:
[1] = target: T1, mouse CD276 expressed on the cell surface (CHO-msCD276); assay: Flow cytometry binding to CHO cells expressing mouse CD276; assay type: cell-based; conditions: scFv-Fc, 1 μg/100 μl, FIG. 4
Description: (§1) Chinese hamster ovary (CHO) cells were untransduced or transduced to express mouse CD276 or human CD276. The cells were cultured with 1 μg/100 μl of the anti-CD276 scFv-Fc m8524 (m276) (SEQ ID NOs: 26 and 27) (primary antibody) and fluorescein isothiocyanate (FITC) Gt anti-human antibody (H+L) (as a secondary antibody). The binding of the anti-CD276 scFv-Fc m8524 (m276) to mouse or human CD276 expressed on the cell surface was measured by flow cytometry.

HEK 293 cells (293) = assay: Cell viability of untransduced HEK 293 cells
Description: (§2) HEK 293 cells (293) or HEK 293 cells transduced with CD276 (293/CD276) were treated with MMAE alone, m8524 (m276) (SEQ ID NOs: 26 and 27) antibody alone, m825 (irrelevant control antibody)-ADC, or m8524-ADC. The drug of the ADCs was MMAE.

[2] = tested on: human CD276-AP fusion protein; assay: ELISA binding assay, human CD276; conditions: scFv-Fc fusion protein in culture medium, serially diluted; CD276-AP coated at 2 μg/ml; FIG. 1A
Description: (§3) The scFv-encoding inserts of the unique clones were digested with SfiI and ligated into modified pSecTag bearing the same set of SfiI sites and Fc-Avi tag for soluble expression. These constructs were transfected into 293T cells for expression following the manufacturer's protocol. After 72 hr of growth, the scFv-Fc fusion proteins in the culture medium were used for the ELISA binding assay.
(§4) 50 μl of the diluted human (FIG. 1A) or mouse (FIG. 1B) CD276-AP fusion protein in PBS at 2 μg/ml was coated in a 96-well plate at 4° C. overnight. Transiently expressed scFv-Fc fusion protein in the culture medium was serially diluted and added into the target protein coated wells. After washing, a 1:3000 diluted horseradish peroxidase (HRP) conjugated goat anti-human IgG antibody was added for 1 hr at RT. After washing, 3, 3, 5, 5′-Tetramethylbenzidine (TMB) substrate was added, and the optical density (O.D.) was read at 450 nm.

[3] = target: T2, human CD276 expressed on the cell surface (CHO-huCD276); assay: Flow cytometry binding to CHO cells expressing human CD276; assay type: cell-based; conditions: scFv-Fc, 1 μg/100 μl, FIG. 4
Description: as §1

human CD276 Ecto-domain = target: T3, human CD276 Ecto-domain; assay: Affinity determination by surface plasmon resonance (Biacore X100); assay type: binding; conditions: scFv m8524; immobilized human CD276 soluble extracellular domain; 1:1 Langmuir fit; 25° C; FIG. 2
Description: Binding affinities of human anti-CD276 scFv m8524 to human CD276 Ecto-domain were analyzed by surface plasmon resonance technology using a Biacore X100 instrument (GE healthcare). The human CD276 soluble extracellular domain was covalently immobilized onto a sensor chip (CM5) using carbodiimide coupling chemistry. A control reference surface was prepared for nonspecific binding and refractive index changes. For analysis of the kinetics of interactions, varying concentrations of […] were injected at a flow rate of […] using running buffer containing 10 mM HEPES, 150 mM NaCl, 3 mM EDTA, and 0.05% Surfactant P-20 (pH 7.4). The association and dissociation phase data were fitted simultaneously to a 1:1 Langumir global model, using the nonlinear data analysis program BIAevaluation 3.2. All of the experiments were done at 25° C. The affinity of the antibody m8524 (m276) (comprising a heavy chain comprising SEQ ID NO: 26 and a light chain comprising SEQ ID NO: 27) is shown in FIG. 2.

[4] = tested on: mouse CD276-AP fusion protein; assay: ELISA binding assay, mouse CD276; conditions: scFv-Fc fusion protein in culture medium, serially diluted; CD276-AP coated at 2 μg/ml; FIG. 1B
Description: as §3, §4

293/CD276 cells = assay: Cell viability of HEK 293 cells transduced with CD276
Description: as §2

HT29 cells = assay: In vitro cell viability, HT29; assay type: cell-based, human; conditions: various concentrations (nM), FIG. 13
[5] = tested on: KM12 human colon carcinoma xenografts; assay: KM12 human colon carcinoma xenografts in athymic nude mice; assay type: in vivo; conditions: 1, 3 or 10 mpk twice weekly for 3 weeks, 2 day break, FIG. 11
Description: Athymic nude mice bearing KM12 human colon carcinoma xenografts were treated with control (vehicle), m8524 (m276) (SEQ ID NOs: 26 and 27) alone (10 mg/kg (mpk)), or m8524 (m276)-MMAE ADCs at various dosages (1 mpk, 3 mpk, or 10 mpk) twice weekly for 3 weeks, followed by a 2 day break, followed by another dose twice weekly for 3 weeks. Tumor volume was measured at various time points after administration.

[6] = tested on: MDA-MB231 human breast cancer cells (mammary fat pad); assay: MDA-MB231 human breast cancer orthotopic xenografts in athymic nude mice; assay type: in vivo; conditions: 1 mpk or 10 mpk twice weekly for 3 weeks; FIG. 16
Description: MDA-MB231 human breast cancer cells were implanted in the mammary fat pad of athymic nude mice (orthotopic model). Tumor-bearing mice were treated with control (vehicle), m8524 (m276) (SEQ ID NOs: 26 and 27) alone (10 mg/kg (mpk)), or m8524 (m276)-MMAE ADCs (at a dose of 1 mpk or 10 mpk) twice weekly for 3 weeks. Tumor volume was measured at various time points after administration.

[7] = tested on: OVCAR3 human ovarian xenografts; assay: OVCAR3 human ovarian xenografts in SCID mice; assay type: in vivo; conditions: 1, 3 or 10 mpk on days 1, 4, 8 and 11; FIGS. 12 and 15
Description: SCID mice bearing OVCAR3 human ovarian xenografts were treated with control (vehicle), m8524 (m276) (SEQ ID NOs: 26 and 27) alone (10 mg/kg (mpk)), MMAE alone (0.2 mpk), or m8524 (m276)-MMAE ADCs at various dosages (1 mpk, 3 mpk, or 10 mpk) on days 1, 4, 8 and 11. Tumor volume was measured at various time points after administration. The results are shown in FIG. 12 (up to Day 11) and FIG. 15 (up to Day 53).

[8] = tested on: HCT-116 human colon cancer xenografts; assay: HCT-116 human colon cancer xenografts in athymic nude mice; assay type: in vivo; conditions: 1, 3, 10 or 30 mpk twice a week for three weeks; FIGS. 8 and 9
Description: Athymic nude mice bearing HCT-116 human colon cancer xenografts were treated with control (vehicle), m8524 (m276) (SEQ ID NOs: 26 and 27) alone (30 mg/kg (mpk)), or m8524 (m276)-MMAE ADCs at various dosages (1 mpk, 3 mpk, 10 mpk, or 30 mpk) twice a week for three weeks. Tumor volume was measured at various time points after administration.

[9] = tested on: HT29 human colorectal adenocarcinoma xenografts; assay: HT29 human colorectal adenocarcinoma xenografts in athymic nude mice; assay type: in vivo; conditions: 1, 3 or 10 mpk twice a week for three weeks; FIG. 10
Description: Athymic nude mice bearing HT29 human colorectal adenocarcinoma xenografts were treated with control (vehicle), m8524 (m276) (SEQ ID NOs: 26 and 27) alone (10 mg/kg (mpk)), or m8524 (m276)-MMAE ADCs at various dosages (1 mpk, 3 mpk, or 10 mpk) twice a week for three weeks. Tumor volume was measured at various time points after administration.

OVCAR3 cells = assay: In vitro cell viability, OVCAR3; assay type: cell-based, human; conditions: various concentrations (nM), FIG. 13
HCT116 cells = assay: In vitro cell viability, HCT116; assay type: cell-based, human; conditions: various concentrations (nM), FIG. 13

Molecule | binding to mouse CD276 expressed on the cell surface (flow cytometry) [1] | cytotoxicity (cell viability, % of control) (HEK 293 cells (293)) | binding to human CD276 (OD at 450 nm, ELISA) [2] | binding to human CD276 expressed on the cell surface (flow cytometry) [3] | Kd (human CD276 Ecto-domain) [nM] | binding to mouse CD276 (OD at 450 nm, ELISA) [4] | cytotoxicity (cell viability, % of control) (293/CD276 cells) | cytotoxicity (cell viability, % of control) (HEK 293 cells (293); 293 cells (low CD276), various concentrations (nM), FIG. 7) | cell viability (HT29 cells) | tumor volume as compared to control or m8524 (m276) alone [5] | tumor volume as compared to control or m8524 (m276) alone [6] | tumor volume as compared to control, MMAE alone, or m8524 (m276) alone [7] | tumor volume as compared to control or m8524 (m276) alone [8] | tumor volume as compared to control or m8524 (m276) alone [9] | cell viability (OVCAR3 cells) | cell viability (HCT116 cells) | cytotoxicity (cell viability, % of control) (293/CD276 cells; 293/CD276 cells (high CD276), various concentrations (nM), FIG. 7) | selectivity for CD276-expressing cells (293/CD276 cells; 293/CD276 versus 293 cells, FIG. 7)
B1 | bound | resistant to killing | bound | bound | 0.049 | bound | resistant to killing | – | – | – | – | – | – | – | – | – | – | –
B2 | – | – | – | – | – | – | – | selectively cytotoxic | decreased | decreased | decreased | decreased | decreased | decreased | decreased | decreased | selectively cytotoxic | toxicity corresponding to CD276 expression levels
